Data on two molecules can be found in article PMC2679042 (2009).

The target of one assay is proMMP-2 (Homo sapiens) (UniProt P08253). As to conditions: cited from earlier work.
In a further assay the target is T1, proMMP-2 (Homo sapiens, UniProt P08253).
T1 chain: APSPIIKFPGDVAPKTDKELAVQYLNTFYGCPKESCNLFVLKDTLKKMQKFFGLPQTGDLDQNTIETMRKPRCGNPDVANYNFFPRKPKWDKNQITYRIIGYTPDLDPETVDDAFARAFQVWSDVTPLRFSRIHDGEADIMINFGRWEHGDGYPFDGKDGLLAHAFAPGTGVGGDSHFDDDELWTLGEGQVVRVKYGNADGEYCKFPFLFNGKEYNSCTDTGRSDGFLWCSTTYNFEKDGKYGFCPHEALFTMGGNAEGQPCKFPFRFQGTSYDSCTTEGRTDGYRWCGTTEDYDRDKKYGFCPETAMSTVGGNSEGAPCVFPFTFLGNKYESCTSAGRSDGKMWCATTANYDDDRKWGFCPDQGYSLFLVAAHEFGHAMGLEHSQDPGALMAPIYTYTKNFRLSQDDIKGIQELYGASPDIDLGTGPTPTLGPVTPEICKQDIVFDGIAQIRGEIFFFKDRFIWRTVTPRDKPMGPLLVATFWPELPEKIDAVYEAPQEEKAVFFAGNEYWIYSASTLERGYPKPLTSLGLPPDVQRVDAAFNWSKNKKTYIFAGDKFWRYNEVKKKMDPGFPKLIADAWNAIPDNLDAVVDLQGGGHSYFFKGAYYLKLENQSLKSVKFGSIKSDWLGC
The assay can be described thus: tryptophan fluorescence quenching.

As a reminder, the Kd is the concentration at which binding is half-saturated. On to bone sialoprotein (from UniProt P21815), for which the Kd in the assay with proMMP-2 (Homo sapiens) was 2.9 nM.

B1: bone sialoprotein (protein)
chain: FSMKNLHRRVKIEDSEENGVFKYRPRYYLYKHAYFYPHLKRFPVQGSSDSSEENGDDSSEEEEEEEETSNEGENNEESNEDEDSEAENTTLSATTLGYGEDATPGTGYTGLAAIQLPKKAGDITNKATKEKESDEEEEEEEEGNENEESEAEVDENEQGINGTSTNSTEAENGNGSSGGDNGEEGEEESVTGANAEDTTETGRQGKGTSKTTTSPNGGFEPTTPPQVYRTTSPPFGKTTTVEYEGEYEYTGANEYDNGYEIYESENGEPRGDNYRAYEDEYSYFKGQGYDGYDGQNYYHHQ
Turning to B1, the Kd with proMMP-2 was 270 nM.
